Data taken from patent US20100093033.

Assays:
[1] = target: HIRA-LacI fusion (Escherichia coli LacI; HIRA organism not stated) (UniProt P03023); experiment: cell_activity; settings: sIgM loss; untethered HIRA 1.7-fold
[2] = target: LacI-HP1 fusion (Escherichia coli LacI; Drosophila melanogaster HP1a) (UniProt P03023); experiment: cell_activity; settings: sIgM loss; chromatin effects largely reversed by 250 uM IPTG
[3] = target: E47-LacI fusion (Escherichia coli LacI; E47 organism not stated) (UniProt P03023); experiment: cell_activity; settings: sIgM loss; almost reversed by 100 uM IPTG
[4] = target: Lactose repressor LacI (Escherichia coli) (UniProt P03023); settings: CITED general LacO affinity, method not stated; printed as <10-12 M; cited from earlier work
[5] = system: E2A (Gallus gallus); settings: ChIP with anti-E2A vs IgG, normalized to ovalbumin

Substance	activity (fold diversification vs GFP-LacI) [1]	activity (fold diversification vs GFP-LacI) [2]	activity (fold diversification vs GFP-LacI) [3]	Kd [4] [pM]	binding signal (fold enrichment) [5]
PolyLacO at Igλ (about 80-100 repeats of 20 bp lac operator, 3.8 kb)	11	5.6	4.5	< 1	–
rearranged VλR allele, DT40	–	–	–	–	17.6
